Key:
IkBα, P25963 = molecular target: T1, IkBα, P25963
T1 chain: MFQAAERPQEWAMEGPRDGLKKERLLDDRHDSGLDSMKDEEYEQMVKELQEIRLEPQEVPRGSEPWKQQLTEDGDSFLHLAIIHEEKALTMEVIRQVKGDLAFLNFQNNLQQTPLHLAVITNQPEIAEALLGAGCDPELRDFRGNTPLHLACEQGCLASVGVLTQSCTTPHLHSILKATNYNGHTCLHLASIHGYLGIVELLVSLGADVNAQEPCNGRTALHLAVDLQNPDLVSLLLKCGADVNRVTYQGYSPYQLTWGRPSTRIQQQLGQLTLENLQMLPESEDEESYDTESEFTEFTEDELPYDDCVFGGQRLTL

p53, P04637, sequence (P04637 whole entry, looked up): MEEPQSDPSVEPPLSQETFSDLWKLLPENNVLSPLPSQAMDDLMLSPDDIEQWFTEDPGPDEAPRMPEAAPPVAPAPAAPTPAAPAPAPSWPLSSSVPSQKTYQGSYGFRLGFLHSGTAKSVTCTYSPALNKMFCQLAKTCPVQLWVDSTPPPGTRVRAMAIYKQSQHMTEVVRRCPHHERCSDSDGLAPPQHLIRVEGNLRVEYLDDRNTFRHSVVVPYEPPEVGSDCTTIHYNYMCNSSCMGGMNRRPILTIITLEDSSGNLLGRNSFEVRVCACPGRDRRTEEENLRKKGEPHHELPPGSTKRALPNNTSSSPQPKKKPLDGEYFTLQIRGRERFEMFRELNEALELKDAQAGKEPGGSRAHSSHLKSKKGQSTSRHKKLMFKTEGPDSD

B1: purified topors (protein)
chain: MGSQPPLGSPLSREEGEAPPPAPASEGRRRSRRVRLRGSCRHRPSFLGCRELAASAPARPAPASSEIMASAAKEFKMDNFSPKAGTSKLQQTVPADASPDSKCPICLDRFDNVSYLDRCLHKFCFRCVQEWSKNKAECPLCKQPFDSIFHSVRAEDDFKEYVLRPSYNGSFVTPDRRFRYRTTLTRERNASVYSPSGPVNRRTTTPPDSGVLFEGLGISTRPRDVEIPQFMRQIAVRRPTTADERSLRKIQEQDIINFRRTLYRAGARVRNIEDGGRYRDISAEFFRRNPACLHRLVPWLKRELTVLFGAHGSLVNIVQHIIMSNVTRYDLESQAFVSDLRPFLLNRTEHFIHEFISFARSPFNMAAFDQHANYDCPAPSYEEGSHSDSSVITISPDEAETQELDINVATVSQAPWDDETPGPSYSSSEQVHVTMSSLLNTSDSSDEELVTGGATSQIQGVQTNDDLNNDSDDSSDNCVIVGFVKPLAERTPELVELSSDSEDLGSYEKMETVKTQEQEQSYSSGDSDVSRCSSPHSVLGKDEQINKGHCDSSTRIKSKKEEKRSTSLSSPRNLNSSVRGDRVYSPYNHRHRKRGRSRSSDSRSQSRSGHDQKNHRKHHGKKRMKSKRSRSRESSRPRGRRDKKRSRTRDSSWSRRSQTLSLSSESTSRSRSRSSDHGKRRSRSRNRDRYYLRNNYGSRYKWEYTYYSRNKDRDGYESSYRRRTLSRAHYSRQSSSPEFRVQSFSERTNARKKNNHSERKYYYYERHRSRSLSSNRSRTASTGTDRVRNEKPGGKRKYKTRHLEGTNEVAQPSREFASKAKDSHYQKSSSKLDGNYKNESDTFSDSRSSDRETKHKRRKRKTRSLSVEIVYEGKATDTTKHHKKKKKKHKKKHKKHHGDNASRSPVVITIDSDSDKDSEVKEDTECDNSGPQDPLQNEFLAPSLEPFETKDVVTIEAEFGVLDKECDIATLSNNLNNANKTVDNIPPLAASVEQTLDVREESTFVSDLENQPSNIVSLQTEPSRQLPSPRTSLMSVCLGRDCDMS
- sumoylation of IkBα in vitro (IkBα, P25963): Topors also activates sumoylation of p53, but not IkBα
- sumoylation of p53 in vitro (p53, P04637): Topors also activates sumoylation of p53, but not IkBα

Source: patent publication US20080038731
